This is an account of results in publication PMC8122577, “Estrogen-Related Receptor Influences the Hemolymph Glucose Content by Regulating Midgut Trehalase Gene Expression in the Last Instar Larvae of Bombyx mori”.

For data set [1], the target named is T1, BmERR DBD (Bombyx mori, UniProt A0A1B1M0R7 103-178).
T1 sequence: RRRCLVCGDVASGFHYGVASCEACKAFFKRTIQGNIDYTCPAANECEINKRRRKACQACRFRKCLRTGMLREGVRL
The data set is described as follows: EMSA; dose-dependent; reduced by anti-BmERR antibody or competitive probe; EMSA (Beyotime chemiluminescent kit), 25 °C 20 min; 5% native PAGE in 45 mM Tris-borate, 1 mM EDTA pH 8.3; binding buffer not given. To be noted: protein: recombinant; label: 3'-end biotin; blunt.

Data set [2] has as its target T1, BmERR DBD. The data set is described as follows: EMSA; inhibited by competitive probe; EMSA (Beyotime chemiluminescent kit), 25 °C 20 min; 5% native PAGE in 45 mM Tris-borate, 1 mM EDTA pH 8.3; binding buffer not given. The following applies: protein: recombinant; label: 3'-end biotin; blunt.

B1: ERRE-like CRE 4 (dsDNA)
DNA 1: CGATACAAGGTCAACGAGA
DNA 2: TCTCGTTGACCTTGTATCG
Consider B1, for which the binding result with BmERR DBD [1] was “binds”.

B2: ERRE-like CRE 1 (dsDNA)
DNA 1: GGGTTCTGACCTCGGAGGG
DNA 2: CCCTCCGAGGTCAGAACCC
Consider B2, for which, in the data set with BmERR DBD [2], the binding result is reported as “binds”.

B3: ERRE-like CRE 2 (dsDNA)
DNA 1: CATTGGTGACCTACATGGC
DNA 2: GCCATGTAGGTCACCAATG
On to B3, for which the binding result in the data set with BmERR DBD [2] is “binds”.

B4: ERRE-like CRE 6 (dsDNA)
DNA 1: GCCTACAAGGGCAATAAAA
DNA 2: TTTTATTGCCCTTGTAGGC
On to B4, for which the binding result with BmERR DBD [2] is given as “binds”.
